The values that follow come from publication PMC8488656.

This assay has as its target colicin E7 (ColE7) (UniProt Q47112). Nature of the assay: ELISA.
Sequence of UniProt Q47112 (Q47112 whole entry): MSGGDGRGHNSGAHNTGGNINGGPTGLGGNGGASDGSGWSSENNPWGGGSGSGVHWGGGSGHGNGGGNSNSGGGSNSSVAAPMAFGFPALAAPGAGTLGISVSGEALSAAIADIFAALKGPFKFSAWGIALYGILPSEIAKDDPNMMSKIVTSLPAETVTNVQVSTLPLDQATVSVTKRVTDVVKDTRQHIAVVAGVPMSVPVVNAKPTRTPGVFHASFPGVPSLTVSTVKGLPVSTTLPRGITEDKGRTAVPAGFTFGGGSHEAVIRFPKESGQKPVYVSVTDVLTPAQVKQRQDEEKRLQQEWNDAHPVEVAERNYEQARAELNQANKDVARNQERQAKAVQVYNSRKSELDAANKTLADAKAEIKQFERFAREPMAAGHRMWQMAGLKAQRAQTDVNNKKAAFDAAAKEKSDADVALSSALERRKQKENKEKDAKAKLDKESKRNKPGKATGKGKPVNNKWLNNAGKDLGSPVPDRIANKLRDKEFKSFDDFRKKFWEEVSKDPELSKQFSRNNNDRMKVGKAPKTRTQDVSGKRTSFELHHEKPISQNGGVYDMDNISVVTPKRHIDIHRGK
With “YebF-Im7^N30, glycosylated (from UniProt Q03708 1-87) (natural protein)”, the agly/ai (binding activity, glycosylated over aglycosylated variant) amounted to 1.36.
“YebF-Im7^N31, glycosylated (from UniProt Q03708 1-87) (natural protein)” had an agly/ai (binding activity, glycosylated over aglycosylated variant) of 0.55.
In turn, “YebF-Im7^N49, glycosylated (from UniProt Q03708 1-87) (natural protein)” had an agly/ai (binding activity, glycosylated over aglycosylated variant) of 1.91.
The substance “YebF-Im7^N58, glycosylated (from UniProt Q03708 1-87) (natural protein)” showed an agly/ai (binding activity, glycosylated over aglycosylated variant) of 3.44.
